Experiment: soluble on expression in E. coli; label from the status in PepcDB or PDB records

Question: With “AHHHHHHGSKIKRKIYWTKEFDSSHLLDLPYESKCKRIHGHTYRIEIEIYGDINEQGMIFDFNHLSDLIKELDHKIIVSKNWIEEREEFIVVKKNQKTLEIPRSEVVVIDKPNVTAEYLAEWFVEKILEKADKNIYEIKVRVWEDPRSYAEVTLELQGS” as the sequence, how does the “soluble on expression in E. coli” value read?
Answer: soluble

Question: Which “soluble on expression in E. coli” value does the source give for “AHHHHHHGSKKFRFFVSGMPGVGKTTLAKRIADEIKREGFKVGGIITQEIRSGARRSGFRVIALDTGEIGRLAYVGQGYPRLGRYVIDVESFEKVAIPAISRALREGDLIVIDEIGPMEFKSNEFLKALGLVLRSEKPLLATVHRRFVERYRPLGEYYWLTPENREAVFSEILVKIKELLRENENAGNKAQD” here?
Answer: not soluble

Question: For “AHHHHHHGSKNLYLPITIDHIARVEGKGGVEIIIGDDGVKEVKLNIIEGPRFFEAITIGKKLEEALAIYPRICSFCSAAHKLTALEAAEKAVGFVPREEIQALREVLYIGDMIESHALHLYLLVLPDYRGYSSPLKMVNEYKREIEIALKLKNLGTWMMDILGSRAIHQENAVLGGFGKLPEKSVLEKMKAELREALPLAEYTFELFAKLEQYSEVEGPITHLAVKPRGDAYGIYGDYIKASDGEEFPSEKYRDYIKEFVVEHSFAKHSHYKGRPFMVGAISRVINNADLLYGKAKELYEANKDLLKGTNPFANNLAQALEIVYFIERAIDLLDEALAKWPIKPRDEVEIKDGFGVSTTEAPRGILVYALKVENGRVSYADIITPTAFNLAMMEEHVRMMAEKHYNDDPERLKILAEMVVRAYDPCISCSVHVVRL”, which “soluble on expression in E. coli” value is on record?
Answer: soluble

Question: With “AHHHHHHGSLCEEKLEVFENGFKDDKHNIEIHVYGGDGRKVLLALIYELYSPEYGSEYVYPFECAKEFWGIYLDSSEVKGEEAELKPLKFISESVKSKIEKELEDIKAPIEVELEKSTIYKVKDGYIVLGKNFLLDHKGRLFVFNKPQVGEIILKYIWKW” as the sequence, how does the “soluble on expression in E. coli” value read?
Answer: soluble

Question: For “AHHHHHHGSLSERMLKALNDQLNRELYSAYLYFAMAAYFEDLGLEGFANWMKAQAEEEIGHALRFYNYIYDRNGRVELDEIPKPPKEWESPLKAFEAAYEHEKFISKSIYELAALAEEEKDYSTRAFLEWFINEQVEEEASVKKILDKLKFAKDSPQILFMLDKELSARAPKLPGLLMQGGE”, which “soluble on expression in E. coli” value is on record?
Answer: not soluble

Question: Which “soluble on expression in E. coli” value does the source give for “AHHHHHHGSVERKKWSENFSEWFNEVIEEAGILDKRYPVKGMNVWLPYGLKIMKNIEKFIHEEMERTDHQEVLFPALIPETEFQKEAEHIAGFEGEVFWVTHAGHEPLDVRLVLRPTSETAMYSMFALWIRSHADLPFKVYQIVNVYRYETKHTRPLIRVREISRFFEAHTAHADFEDAERQIKEDLEIFDNLMKKLAIAYVISKRPEWDKFPGAYYSLGAEVVMPDGRTLQIGTMHNYKQNFAKAYNILYEKEDGTHDYVHQTTFGMSERLLAAVIAIHGDDRGMVLPPTIAPIQVVIVPIPKKGSEEEVYSYAREIEEELKLAGIRVHLDLRDKRPGWKFYDWELKGVPVRIEVGPRDAAEKTVVLARRDKLEKITVSREELVDKVRELFDDIMQYLYERAKEWLESHIKRVDTIEEAKELFNDRRGIVEIPWCGEEECGLKMEEELEAKMLGIPYPEESARVEGKKCPVCGREAKFIARFARTY” here?
Answer: not soluble

Question: For “AHHHHHHGSYLEEKDGIKFYSLNKLEKEGFDVHSLPYSLRILAENILRHLNNGVVSYEHIENIFERKGDIPFYPARIIMQDYTGVPAIVDLAAMRDYIKEKGKDPSRVNPKIPVELVVDHSLIVLYHGTKYSLYENMKEELKANRERYSLLKWASKAFENLKIIPPGKGIIHQINVEHLARIVFLEEGIAYPDTVLGTDSHTPMVNGIGVLGWGVGGIEAEAALLGLPYFMKVPEVVGVVLEGEPSPEITPTDIVLTITEKLRKVGVVGKFLEYTGNVEALSAFDRTVIANMTPENGATVGYFPIDEETIKFIRLTRGESKAKLVEKYAKLNMLYREETPEFDKTVKIDLSKVEPSVAGPFHPEDRIRLKDLKNSFKVEKKTKIRINGGEVEIEDGIIGLAAIASCTNTSNPYNILAAALVAKKAVELGLRTKPWVKTTFTPGSRVVVKYLEKLGLLSYLEALGFHVNGYACASCIGNSGPLKREVEEVIDKGIKVAAVISGNRNFRRRVNSKIDYTYLASPPLVVVFAIAGKITIDPSEPLAYDPNGKPVYLTDILPTKEEVKKLEEVIGEELYKEAYSSLFEDSIWKDIETEESPLFKWDEKSTYVRKPPFFDLTPITDDIKGARALIVLGDRISTDDISPAGKIDPESPAGRYLLSLGVKPEELHTYGARRGNHEVMMRGTFARFKMIYWPTGEEMSVYEAAMRYKERGIPLIIIAGKQYGVGSSRDWAAKGPALLGVKAVIAESFERIHRSNLVGMGIVPLQFKDPEVRKRLTGEEVYDIIGLKDLYPGKTIKVIARKPNGEVIEFETIARVETPIEVEYIRHGGILKYALELLG”, which “soluble on expression in E. coli” value is on record?
Answer: not soluble

Question: With “AIAAQEENKRLVVVVPNEMTVPSRRAFTSEDEAWKSYLENPLTAATKAMMSINGDEDSVAALGILYDYYKVPKEKRLLPVHKLPEDHEKSRISQDGLESAENRIHVLKSLPVNLSLNPDSENKQDLFGTVPAEDGVVATVKPEVYAQSFSSHHQQLHYHRTPYHPHLQDSVSVSHDRYMKDDQCSTPDSTFEDSYPEDPMRYRVPTTPAAEDFTHEQAGLNMFQYNIEASRSVREKAADGPMVYLNKGQFYGITLSETGANKGLRHPISKVRTVVMVVFGQEKCRDEQLKHWNYWHTRQHTAKQRVLDIADYKESFNTIGNIEEIAYNAVSFTWDPAAVHKSFCASVILL” as the sequence, how does the “soluble on expression in E. coli” value read?
Answer: soluble

Question: For “AIACHTQVGGSMQVPEPRRPFTCSSENNVTNSFFEEAYSASFRSKLYNMVEEIEQERAKYCNSANLSYMDAFGVEKESIEEDYNKEEDRDSLCSVDIADNSETSNRSSEDLLCDNCSKSLMFLNNVFKWNDLLFCNLDCYTSAILKNQKGADVKHRVACSLSPTWHKDCVHSVQD”, which “soluble on expression in E. coli” value is on record?
Answer: soluble

Question: With “AIADTGELHDLTVKGAVVTQLERCEVACQRLFQNLALLGLELQNSESITEGVCDSKAASDLGSSVELLENEERALRLCVDRFVLELRQVENLAKTLDGIREEEERILSLEQRSIEQAERCFYLWNDAREMLRGTRLTSIKEVLESAARYPRIPSWTPLPTSN” as the sequence, how does the “soluble on expression in E. coli” value read?
Answer: soluble

Question: For “AIADYSNTYGAYGGGGFLPESPARTGGNASTRFGVGSGSSLRDQRRSLLPVRVADLVHAVHDPVTNTFVLRDENEHQSITISEGSIVKVVAYVEELREQPLDLLWLLDDRSGEMIWARMASTSSSSLAALEQSGILVRVFGQLLEVDGRRVLNVRAIRKADGEVELRYHENLCQLSKLQLIRGYPTAGNALAGASSSPASPKAGPSKAVHRSSLGSGAPKEMAQQAPGLEIPAAFPPEHFKVLKCIREETARNRDAMLTDIAQRIALSTTKVRGICDALQNEGHIYCTLDDDTFRASSS”, which “soluble on expression in E. coli” value is on record?
Answer: soluble

Question: With “AIAEAKTLGIATPRKPVLSVSARKLKDNAADWHNLILKWDSLSDKGFTTASSIANLKVSLLSKEKVELESSSPASMEEEEKTNLDYDKGLEALCEELQAILDGLTKIQMKMEKLSSTTKGICELENYHYREESSRPPLFHTWPTAFFYEVSRRLSEAYKKELLLKHTIGAELAHTADRNLSLTYLSMWLHQPYIESNSKLQLESMLLETGHRAL” as the sequence, how does the “soluble on expression in E. coli” value read?
Answer: soluble

Question: With “AIAEEDEFIGEKTFQRYCAEFIKHSQQIGDSWEWRPSKDCSDGYMCKIHFQIKNGSVMSHLGASTHGQTCLPMEEAFELPLDDCEVIETAAASEVIKYEYHVLYSCSYQVPVLYFRASFLDGRPLTLKDIWEGVHECYKMRLLQGPWDTITQQEHPILGQPFFVLHPCKTNEFMTPVLKNSQKINKNVNYITSWLSIVGPVVGLNLPLSYAKATSQDERNVP” as the sequence, how does the “soluble on expression in E. coli” value read?
Answer: soluble

Question: Which “soluble on expression in E. coli” value does the source give for “AIAFQPVTQKRLTNVSVVRMRKGGKRFEIACYPNMVMAYREGHVRDLDEVIQVEDVFENVSKGKLAANADLERCFGTRDRHAVLLQILLHGDLQVSDRERQYQSTRKLHEIASVVAAKTISRETKKPLPVGLIEKALREIHFAVQPNRPAKAQALEVIPLLRAQSGLDLERARLRLRIHVPSQRDAKAVKARLEPLQQGETDGTHSSSRSDSVRMKDGSAAVESESEEWLPGGALLWTVQADPGAFREIEEIVQRETNQQGIVEVASLRVLDDEDESILS” here?
Answer: soluble

Question: Which “soluble on expression in E. coli” value does the source give for “AIAGCLFSVPEGGYLEVNEERSAGAYDSLSTASGIDDLHDERQPKAAYSMEDSSADLVAEDGAAVHQEVLNAHDDAWCRFDATSDATNEGAAAGGIGAPPSPLDLSLDSVVQQAYQDRVLVVFSGKAFGIALQLQMHWAALGASSAAPECVMDACVPESLLRAVHACLRAHMHACERIANRWNPDSELSAACSSAHPKKAVEVGTILYALLAEAHRLHRVTGGRFDPTCGALWRGFRATLRSSALQRPPQGRAFST” here?
Answer: soluble

Question: For “AIAHGVEFAPLERQHGSQVLALLRGTLLVPLPRLHQRLEEAYERDARLGLAQVALCRLAGNAEKVVGVLLARVATRRTCCAQVYIDAVAVDAVFQGQGIGSRLLLRVLTPCLPDGLEVREVFLHTPLQATELVAFYRSCGFESDDEVIDNYYPRRWMPQAQALVLRWRPPTAAQHQHEERKGPQDADVS”, which “soluble on expression in E. coli” value is on record?
Answer: soluble

Question: With “AIAPSDLAKKKAAKKKEAAKARGRTRKPEDGVNGDAEKPEIQENGAAEVNGVDSLAKELDEFELKKTEARAVTGVLASHPNSTDVHISSLSLTFHGQELLSDTSLELNSGRRYGLIGLNGTGKSMLLSAISHREVPIPEHIDIYHLTREMAPSEKTALQCVMEVDEERIKLEKEAERLAHEDSECEKLMELYERLEELDADKASMRASRILHGLGFTTSMQQKKLKDFSGGWRMRVALARALFLKPFMLLLDEPTNHLDLDACVWLEEELSQFKRILVLISHSQDFLNGVCTNIIHLHQRKLKYYTGNYDQYVKTREELEENQMKRFNWEQDQIAHMKNYIARFGHGSAKLARQAQSKEKTLQKMVASGLTERVVNDKTLSFYFPPCGKIPPPVIMVQNVSFRYSENTPYIYKNLEFGIDLDTRVALVGPNGAGKSTLLKLLTGELLPSDGMIRKHSHVKIGRYHQHLTEQLELDLSPLEYMMKCYPEIKEKEEMKKIIGRYGLTGKQQVSPIRNLSDGQKCRVCFAWLAWQNPHMLFLDEPTNHLDIETIDALAEAINDFEGGMMLVSHDFRLIQQVAQEIWVCEKQTITKWSRDILAYKEHLKSKIDKQMHDL” as the sequence, how does the “soluble on expression in E. coli” value read?
Answer: soluble

Question: Which “soluble on expression in E. coli” value does the source give for “AIAQNDAGEFVDLYVPRKCSASNRIIGAKDHASIQMNVAEVSWEPGRREGCDICAGKAGCPIVEEPLG” here?
Answer: soluble

Question: With “AIARTDSSKMTDVESGVANFASSARAGRRNALPDIQSSAATDGTSDLPLKLEALSVKEDAKEKDEKTTQDQLEKPQNEEK” as the sequence, how does the “soluble on expression in E. coli” value read?
Answer: soluble

Question: With “AIASETISRVRQLTEKGAKMEGWDDCWKAGLTPWDRGSSLPVLCELCKEDALPKGYALVPGCGRGYDVLTLASESRVAIGLDCSEEAKKQAEQVRKFSVVDNCQLKEIEAEGF” as the sequence, how does the “soluble on expression in E. coli” value read?
Answer: soluble

Question: Which “soluble on expression in E. coli” value does the source give for “AIAVSRLEHPAGGYKKVFESCEELAEPIPAHVSGKIPAWLSGSLLRMGPGLFEIGDEPFNHLFDGQALIHKFDLKDGRVTYHRKFIRTDAYVRAMTEKRVVITELGTAAYPDPCKNIFSRFFTYFQGTEVTDNCSVNIYPIGEDFYACTETNFITKVNPDTLETIKKVDLCNYLSVNGLTAHPHIEADGTVYNIGNCFGKNMSLAYNIVKIPPLQEEKSDPLAMSKVLVQFPSSERFKPSYVHSFGMTENHFVFVETPVKINLLKFLTSWSIRGSNYMDCFESNDRMGTWFHLAAKNPGKYINNPSQ” here?
Answer: soluble

— the DeepSol protein solubility set
